Source: IntAct's records for PubMed 20696938

B1: DNA topoisomerase 4 subunit A (Escherichia coli (strain K12)), P0AFI2 (parent)
chain: MSDMAERLALHEFTENAYLNYSMYVIMDRALPFIGDGLKPVQRRIVYAMSELGLNASAKFKKSARTVGDVLGKYHPHGDSACYEAMVLMAQPFSYRYPLVDGQGNWGAPDDPKSFAAMRYTESRLSKYSELLLSELGQGTADWVPNFDGTLQEPKMLPARLPNILLNGTTGIAVGMATDIPPHNLREVAQAAIALIDQPKTTLDQLLDIVQGPDYPTEAEIITSRAEIRKIYENGRGSVRMRAVWKKEDGAVVISALPHQVSGARVLEQIAAQMRNKKLPMVDDLRDESDHENPTRLVIVPRSNRVDMDQVMNHLFATTDLEKSYRINLNMIGLDGRPAVKNLLEILSEWLVFRRDTVRRRLNYRLEKVLKRLHILEGLLVAFLNIDEVIEIIRNEDEPKPALMSRFGLTETQAEAILELKLRHLAKLEEMKIRGEQSELEKERDQLQGILASERKMNNLLKKELQADAQAYGDDRRSPLQEREEAKAMSEHDMLPSEPVTIVLSQMGWVRSAKGHDIDAPGLNYKAGDSFKAAVKGKSNQPVVFVDSTGRSYAIDPITLPSARGQGEPLTGKLTLPPGATVDHMLMESDDQKLLMASDAGYGFVCTFNDLVARNRAGKALITLPENAHVMPPVVIEDASDMLLAITQAGRMLMFPVSDLPQLSKGKGNKIINIPSAEAARGEDGLAQLYVLPPQSTLTIHVGKRKIKLRPEELQKVTGERGRRGTLMRGLQRIDRVEIDSPRRASSGDSEE
partner: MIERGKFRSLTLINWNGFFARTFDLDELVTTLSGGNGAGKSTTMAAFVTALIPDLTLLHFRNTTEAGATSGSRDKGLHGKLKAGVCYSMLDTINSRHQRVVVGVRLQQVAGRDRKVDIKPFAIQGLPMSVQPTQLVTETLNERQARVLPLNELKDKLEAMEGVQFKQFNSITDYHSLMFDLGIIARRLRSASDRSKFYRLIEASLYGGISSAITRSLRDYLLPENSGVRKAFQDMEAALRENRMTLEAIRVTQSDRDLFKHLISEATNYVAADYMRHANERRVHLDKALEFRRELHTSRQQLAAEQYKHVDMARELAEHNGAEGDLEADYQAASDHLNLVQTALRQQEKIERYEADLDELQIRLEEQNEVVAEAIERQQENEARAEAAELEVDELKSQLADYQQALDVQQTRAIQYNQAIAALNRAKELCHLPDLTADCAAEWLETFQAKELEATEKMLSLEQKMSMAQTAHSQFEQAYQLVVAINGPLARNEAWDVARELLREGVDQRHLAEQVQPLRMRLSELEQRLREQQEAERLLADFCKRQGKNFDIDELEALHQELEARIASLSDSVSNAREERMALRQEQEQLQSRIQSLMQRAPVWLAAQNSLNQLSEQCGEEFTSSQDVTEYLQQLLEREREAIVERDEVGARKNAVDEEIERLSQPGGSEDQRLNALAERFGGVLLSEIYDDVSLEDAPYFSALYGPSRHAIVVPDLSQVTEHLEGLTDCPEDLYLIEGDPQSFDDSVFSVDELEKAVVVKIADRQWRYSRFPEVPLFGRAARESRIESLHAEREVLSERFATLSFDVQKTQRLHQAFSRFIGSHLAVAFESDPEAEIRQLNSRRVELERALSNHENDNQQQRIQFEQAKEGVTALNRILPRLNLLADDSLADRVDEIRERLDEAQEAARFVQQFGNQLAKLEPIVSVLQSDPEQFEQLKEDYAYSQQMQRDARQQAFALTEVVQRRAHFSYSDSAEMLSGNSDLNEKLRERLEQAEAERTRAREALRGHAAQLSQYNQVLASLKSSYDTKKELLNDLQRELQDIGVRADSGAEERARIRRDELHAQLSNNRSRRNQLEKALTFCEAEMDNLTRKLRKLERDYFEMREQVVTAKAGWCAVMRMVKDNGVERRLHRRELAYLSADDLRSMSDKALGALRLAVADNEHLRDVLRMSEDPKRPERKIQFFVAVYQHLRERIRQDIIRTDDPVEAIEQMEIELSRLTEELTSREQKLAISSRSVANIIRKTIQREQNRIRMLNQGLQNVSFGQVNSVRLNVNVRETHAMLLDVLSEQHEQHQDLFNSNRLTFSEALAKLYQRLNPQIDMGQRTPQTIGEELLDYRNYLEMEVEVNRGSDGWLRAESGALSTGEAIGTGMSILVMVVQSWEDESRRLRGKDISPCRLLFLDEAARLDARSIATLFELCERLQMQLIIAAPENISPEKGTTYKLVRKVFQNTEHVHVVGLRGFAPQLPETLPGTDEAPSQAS

Variants of: B1
Settings: with mukb_ecoli mukB

Effect of a mutation on the interaction, disrupting interaction:
R729A
R705E
R705E;R729A
